# Where a chain is given by its changes, count along the chain named. In names and notes the source's numbering stands.
# T1: human CD20 (human, UniProt P11836 1-297)
# T1 construct: whole, on cells; also called human CD20 antigen; target antigen (CD20)
# T1 sequence (looked up): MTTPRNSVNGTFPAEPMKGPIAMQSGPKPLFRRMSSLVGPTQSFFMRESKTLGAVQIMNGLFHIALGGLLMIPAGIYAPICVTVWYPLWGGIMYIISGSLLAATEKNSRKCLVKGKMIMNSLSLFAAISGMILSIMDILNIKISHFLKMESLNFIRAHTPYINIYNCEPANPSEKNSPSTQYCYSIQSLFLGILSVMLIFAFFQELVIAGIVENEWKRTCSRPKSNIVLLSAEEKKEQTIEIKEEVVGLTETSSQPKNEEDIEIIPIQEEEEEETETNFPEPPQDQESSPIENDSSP
# B1: B-HH1 paired with the BKV1 humanized B-ly1 light chain (antibody, human IgG1, V domains shown)
# VH: QVQLVQSGAEVKKPGSSVKVSCKASGYTFSYSWMSWVRQAPGQGLEWMGRIFPGDGDTDYAQKFQGRVTITADKSTSTAYMELSSLRSEDTAVYYCARNVFDGYWLVYWGQGTLVTVSS
# VL: DIVMTQTPLSLPVTPGEPASISCRSSKSLLHSNGITYLYWYLQKPGQSPQLLIYQMSNLVSGVPDRFSGSGSGTDFTLKISRVEAEDVGVYYCAQNLELPYTFGGGTKVEIKR
# notes: also called BHH1-BKV1
# B2: BHH2-BKV1 humanized IgG1 B-ly1 anti-human CD20 antibody (antibody, V domains shown)
# VH: B1 VH with T28A, S35N, A61N, Q62G, Q65K
# VL: B1 VL
# notes: Non-glycoengineered form; also called BHH2-BKV1-wt; humanized B-ly1
# B3: B-HL12 (G9A, V48M) paired with the BKV1 light chain (antibody, human IgG1, V domains shown)
# VH: EVQLVESGAGLVKPGGSLRLSCAASGFTFSYSWMNWVRQAPGKGLEWMGRIFPGDGDTDYNGKFKGRVTITADKSTSTAYMELSSLRSEDTAVYYCARNVFDGYWLVYWGQGTLVTVSS
# VL: B1 VL
# B4: B-HH8 with the BKV1 light chain (antibody, human IgG1, V domains shown)
# VH: B1 VH with S16A, S30T, S35N, A61N, Q62G, Q65K
# VL: B1 VL
# B5: B-HH3 paired with the BKV1 humanized B-ly1 light chain (antibody, human IgG1, V domains shown)
# VH: B1 VH with T28A, S35N, A61N, Q62G, Q65K, Y95L
# VL: B1 VL
# notes: also called BHH3-BKV1
# B6: BHH2-A (V11L) paired with a BKV1 light chain (antibody, human IgG1, V domains shown)
# VH: B1 VH with V11L, T28A, S35N, A61N, Q62G, Q65K
# VL: B1 VL
# B7: BHL17-BKV1 (antibody, human IgG1, V domains shown)
# VH: B3 VH with A9G
# VL: B1 VL
# notes: also called BHL17-BKV1 W1; B-HL17 (V48M)
# B8: BHL8-BKV1 (antibody, human IgG1, V domains shown)
# VH: B3 VH with A9G, M48V
# VL: B1 VL
# notes: also called BHL8-BKV1 wt
# B9: BHL14-BKV1 (antibody, human IgG1, V domains shown)
# VH: B3 VH with A9G, V12K
# VL: B1 VL
# notes: also called B-HL14 (V12K, V48M)
# B10: BHL11-BKV1 (antibody, human IgG1, V domains shown)
# VH: B3 VH with E1Q, A9G, M48V
# VL: B1 VL
# notes: also called B-HL11 (having the mutation E1Q)
# B11: BHH2-B (K12V) paired with a BKV1 light chain (antibody, human IgG1, V domains shown)
# VH: B1 VH with K12V, T28A, S35N, A61N, Q62G, Q65K
# VL: B1 VL
# B12: BHL16-BKV1 (antibody, human IgG1, V domains shown)
# VH: B3 VH with A9G, L20V
# VL: B1 VL
# notes: also called BHL16-BKV1 W1; B-HL16 (L20V, V48M)
# B13: B-HH9 with the BKV1 light chain (antibody, human IgG1, V domains shown)
# VH: B1 VH with S16A, S35N, A61N, Q62G, Q65K
# VL: B1 VL
# B14: BHL15-BKV1 (antibody, human IgG1, V domains shown)
# VH: B3 VH with A9G, G16S
# VL: B1 VL
# notes: also called BHL15-BKV1 W1; B-HL15 (G16S, V48M)
# B15: BHL13-BKV1 (antibody, human IgG1, V domains shown)
# VH: B3 VH with A9G, L11V
# VL: B1 VL
# notes: also called B-HL13 (L11V, V48M)
# Assays:
# [1] = biological target: T1, human CD20; assay: flow cytometry on Raji B-cell lymphoma cells (FIG. 11)
# Protocol: (§1) 200,000 cells in 180 μl FACS buffer (PBS containing 2% FCS and 5 mM EDTA) were transferred to 5 ml polystyrene tubes. Next, 20 μl of 10-fold concentrated anti-CD20 antibody samples (1-5000 ng/ml final concentration) or PBS only were added, and the tubes were incubated at 4° C. for 30 min. Subsequently, samples were washed twice with FACS buffer and pelleted at 300×g for 3 min. Supernatant was aspirated off and cells were taken up in 100 μl FACS buffer. Next, 1 μl anti-Fc-specific F(ab′)2-FITC fragments (Jackson Immuno Research Laboratories, USA) was added and the tubes were incubated at 4° C. for 30 min. Samples were washed twice with FACS buffer and taken up in 500 μl of FACS buffer containing 0.5 μg/ml PI for analysis by Flow Cytometry. Binding was determined by plotting the geometric mean fluorescence against the antibody concentrations.
# [2] = biological target: T1, human CD20; assay: flow cytometry on Raji B-cell lymphoma cells (FIGS. 2, 9 to 13)
# Protocol: as §1
# [3] = biological target: T1, human CD20; assay: flow cytometry on Raji B-cell lymphoma cells (FIG. 2)
# Protocol: as §1
# [4] = biological target: T1, human CD20; assay: flow cytometry on Raji B-cell lymphoma cells (FIG. 22)
# Protocol: as §1
# [5] = biological target: T1, human CD20; assay: flow cytometry on Raji B-cell lymphoma cells (methods described above)
# Protocol: as §1
# [6] = biological target: T1, human CD20; assay: flow cytometry on Raji B-cell lymphoma cells (FIGS. 2, 9 to 13); the same paragraph adds that the binding of B-HL11 to B-HL17 does not differ drastically in EC50 and stoichiometry
# Protocol: as §1
binder,measurement,setting,value
B1,binding result,[1],binds
B2,binding result,[2],binds
B3,binding result,[3],binds
B4,binding result,[4],binds
B5,binding result,[1],binds
B6,binding result,[5],binds
B7,binding result,[3],binds
B8,binding result,[2],binds
B9,binding result,[3],binds
B10,binding result,[6],binds
B11,binding result,[5],binds
B12,binding result,[3],binds
B13,binding result,[4],binds
B14,binding result,[3],binds
B15,binding result,[3],binds
